In patent US20050069869A1 (UNIVERSITY OF MASSACHUSETTS, published 2005):

Legend:
[1] = molecular target: S(1255), full length S protein with transmembrane and cytoplasmic domains, on transfected HEK 293 cells (SARS-CoV, UniProt P59594 15-1190); assay: FACS on HEK 293 cells transfected with S(1255); given as ED50
[2] = molecular target: S(490), amino acids 1-490 of the SARS-CoV S protein (SARS-CoV, UniProt P59594 15-490); assay: immunoprecipitation from culture supernatant, Western blot with anti-His6
[3] = molecular target: T1, S(130), amino acids 1-130 of the SARS-CoV S protein (SARS-CoV, UniProt P59594 15-130); assay: as above
T1 sequence: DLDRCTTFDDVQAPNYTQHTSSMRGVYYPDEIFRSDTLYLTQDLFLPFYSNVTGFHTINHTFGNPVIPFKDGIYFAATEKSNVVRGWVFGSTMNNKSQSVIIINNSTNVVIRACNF

[4] = molecular target: S(470), amino acids 1-470 of the SARS-CoV S protein (SARS-CoV, UniProt P59594 15-470); assay: as above
[5] = molecular target: T2, S(150), amino acids 1-150 of the SARS-CoV S protein (SARS-CoV, UniProt P59594 15-150); assay: as above
T2 sequence: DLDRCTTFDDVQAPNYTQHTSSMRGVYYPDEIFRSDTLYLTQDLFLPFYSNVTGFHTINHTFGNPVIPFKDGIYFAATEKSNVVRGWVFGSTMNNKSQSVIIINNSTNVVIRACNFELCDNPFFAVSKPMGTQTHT

[6] = molecular target: T3, S(269), amino acids 1-269 of the SARS-CoV S protein (SARS-CoV, UniProt P59594 15-269); assay: as above
T3 sequence: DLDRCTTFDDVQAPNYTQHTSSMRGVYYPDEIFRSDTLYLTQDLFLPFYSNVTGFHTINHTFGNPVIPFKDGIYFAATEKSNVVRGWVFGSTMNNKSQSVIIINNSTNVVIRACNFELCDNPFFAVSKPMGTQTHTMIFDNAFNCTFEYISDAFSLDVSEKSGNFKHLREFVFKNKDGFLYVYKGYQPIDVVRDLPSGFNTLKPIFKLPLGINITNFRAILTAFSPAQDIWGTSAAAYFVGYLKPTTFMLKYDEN

[7] = molecular target: T4, S(170), amino acids 1-170 of the SARS-CoV S protein (SARS-CoV, UniProt P59594 15-170); assay: as above
T4 sequence: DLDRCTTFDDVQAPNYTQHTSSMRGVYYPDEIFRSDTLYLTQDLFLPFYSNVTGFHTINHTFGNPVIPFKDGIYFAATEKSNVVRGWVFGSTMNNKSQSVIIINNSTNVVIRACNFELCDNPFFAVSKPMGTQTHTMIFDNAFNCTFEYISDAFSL

[8] = molecular target: S(590), N-terminal 590 amino acids of the SARS-CoV S protein (SARS-CoV, UniProt P59594 15-590); assay: FACS; inhibition of myc-tagged S(590) binding to Vero E6 cells
[9] = molecular target: SARS-CoV S protein of the virus (Urbani strain; virions and infected Vero cell extracts) (SARS-CoV, UniProt P59594 15-1190); assay: cell-based or functional assay

B1: human monoclonal antibody 201.2 (antibody, V domains shown)
VH: EVQLVQSGGGLVHPGGSLRLSCAGSGFTFSSYDMHWVRQAPGKGLEWVSVVGTGDGTYYADSVKGRFTISRDNAKNSLYLQMNSLRAEDMAVYYCARDQWWGSDYWGQGTLVTVSS
VL: EIVLTQSPATLSLSPGERATLSCRASQSVSSYLAWYQQKPGQAPRLLIYDASNRATGIPARFSGSGSGTDFTLTISSLEPEDFAVYYCQQRSNWPLTFGGGTKVEIK
notes: also called 508-201; 7-508-201
- EC50 [1]: 6 nM
- binding result [2]: no binding
- binding result [3]: no binding
- binding result [4]: no binding
- binding result [5]: no binding
- binding result [6]: no binding
- binding result [7]: no binding
- IC50 [8]: 2 nM
- Viral Neut. in vitro (IC50, nM) [9]: 0.7 nM
